T1: ApoER2 (Mus musculus, UniProt Q924X6)
T1 construct: FLAG; expressed in transfected cells; host or cells: RAW264.7
T1 sequence (Q924X6 29-996): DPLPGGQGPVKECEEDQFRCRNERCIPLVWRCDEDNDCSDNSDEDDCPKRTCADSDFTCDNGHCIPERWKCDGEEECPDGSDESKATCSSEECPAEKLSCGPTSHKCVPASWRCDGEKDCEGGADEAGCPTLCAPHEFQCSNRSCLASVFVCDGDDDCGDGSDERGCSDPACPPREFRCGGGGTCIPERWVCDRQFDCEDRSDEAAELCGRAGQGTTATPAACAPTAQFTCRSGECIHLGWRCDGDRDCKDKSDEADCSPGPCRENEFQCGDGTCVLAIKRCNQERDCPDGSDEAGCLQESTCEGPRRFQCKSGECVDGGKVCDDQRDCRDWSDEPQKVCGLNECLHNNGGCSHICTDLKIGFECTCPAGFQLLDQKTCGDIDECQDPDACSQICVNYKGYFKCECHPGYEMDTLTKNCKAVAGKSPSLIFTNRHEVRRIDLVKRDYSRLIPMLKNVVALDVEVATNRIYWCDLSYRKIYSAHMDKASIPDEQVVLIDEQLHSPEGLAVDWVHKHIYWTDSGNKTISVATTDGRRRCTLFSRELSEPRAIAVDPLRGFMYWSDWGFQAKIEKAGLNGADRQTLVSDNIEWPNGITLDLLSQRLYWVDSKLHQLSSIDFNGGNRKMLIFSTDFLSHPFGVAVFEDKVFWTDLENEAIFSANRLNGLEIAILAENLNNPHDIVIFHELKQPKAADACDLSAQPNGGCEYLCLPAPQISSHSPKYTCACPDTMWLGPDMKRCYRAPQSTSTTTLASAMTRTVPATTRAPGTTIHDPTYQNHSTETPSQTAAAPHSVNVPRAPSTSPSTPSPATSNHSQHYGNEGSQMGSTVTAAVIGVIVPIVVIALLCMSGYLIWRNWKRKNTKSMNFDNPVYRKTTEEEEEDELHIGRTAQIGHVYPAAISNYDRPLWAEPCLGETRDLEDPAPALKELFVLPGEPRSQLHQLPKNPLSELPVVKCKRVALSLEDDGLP


Key:
ApoER2 = biological target: T1, ApoER2; assay: Co‐immunoprecipitation of wild‐type/mutated sclerostin with ApoER2 in macrophages (RAW264.7); type: binding; conditions: Figure 6E
Protocol: The interaction of full‐length (FL)/truncated ApoER2 with full‐length (FL) /truncated sclerostin in macrophages (RAW264.7) were determined by pull‐down assay and Co‐IP assay. The binding affinity of ApoER2 to FL sclerostin and sclerostin loop2 were determined by biolayer interferometry (BLI) analysis. Moreover, the binding of sclerostin to ApoER2 on macrophages (RAW264.7) was examined by confocal microscopy.

sclerostin loop2 = sclerostin loop2 (Mus musculus, UniProt Q99P68); assay: Pull‐down assay of ApoER2 muteins with sclerostin loop2; type: binding; conditions: Figure 6D
Protocol: The interaction residues within ApoER2 to sclerostin loop2 were determined in combination with pull‐down assay and BLI analysis. Based on the interaction residues within ApoER2 to sclerostin loop2, a series of Lrp8 mutations were developed. Based on the interaction residues within sclerostin loop2 to ApoER2, a series of sost mutations were developed.
Cell lysates were collected using RIPA Lysis and Extraction Buffer (Thermo Scientific, 89 901) supplemented with Protease Inhibitor Cocktail (CST, 5871) and centrifuged at 4000 rpm for 30 min at 4 °C, and replaced with binding buffer (PBS buffer, 20 mM imidazole, pH 8.0). After pretreatment with binding buffer three times, 20 µL Ni‐NTA Magnetic Agarose Beads were incubated with 6 µg His‐SOST and 6 µg His‐loop3 peptide, respectively, in binding buffer for 2 h at 4 °C with gentle rotation. The beads carrying His‐SOST and His‐loop3 peptide were then incubated with 500 µL cell lysate supernatant at 4 °C overnight with gentle rotation. To eliminate the influence of non‐specific binding between beads and cell lysate, 20 µL beads and 500 µL cell lysate were incubated under the same conditions. […]
The eluted liquid from pull‐down assay was then mixed with SDS‐PAGE loading buffer and boiled for 10 min at 95 °C to make samples. […] The ECL solution (BIO‐RAD, 1 705 061) was used to visualize detected proteins. […]

Chain of sclerostin loop2 (Q99P68 107-132 limits assumed): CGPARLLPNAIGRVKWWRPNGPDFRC

Interaction with ApoER2 by co‐IP (ApoER2) | Binding ability of sclerostin loop2 to ApoER2 mutein versus wild‐type ApoER2 (sclerostin loop2) | Molecule
No interaction |  | SOST^loop2m: sclerostin mutein with I94A, G95A, R96A, K98A, W99A, encoded by sost^loop2m (protein) QGWQAFRNDATEVIPGLGEYPEPPPENNQTMNRAENGGRPPHHPYDAKDVSEYSCRELHYTRFLTDGPCRSAKPVTELVCSGQCGPARLLPNAAAAVAAWRPNGPDFRCIPDRYRAQRVQLLCPGGAAPRSRKVRLVASCKCKRLTRFHNQSELKDFGPETARPQKGRKPRPGARGAKANQAELENAY
 | dramatically weaker | ApoER2‐M2: ApoER2 mutein P253A, T254A, G268A, W269A, R270A (protein, UniProt Q924X6 29-996, looked up, variant P253A T254A G268A W269A R270A) Low-density lipoprotein …: DPLPGGQGPVKECEEDQFRCRNERCIPLVWRCDEDNDCSDNSDEDDCPKRTCADSDFTCDNGHCIPERWKCDGEEECPDGSDESKATCSSEECPAEKLSCGPTSHKCVPASWRCDGEKDCEGGADEAGCPTLCAPHEFQCSNRSCLASVFVCDGDDDCGDGSDERGCSDPACPPREFRCGGGGTCIPERWVCDRQFDCEDRSDEAAELCGRAGQGTTATPAACAAAAQFTCRSGECIHLAAACDGDRDCKDKSDEADCSPGPCRENEFQCGDGTCVLAIKRCNQERDCPDGSDEAGCLQESTCEGPRRFQCKSGECVDGGKVCDDQRDCRDWSDEPQKVCGLNECLHNNGGCSHICTDLKIGFECTCPAGFQLLDQKTCGDIDECQDPDACSQICVNYKGYFKCECHPGYEMDTLTKNCKAVAGKSPSLIFTNRHEVRRIDLVKRDYSRLIPMLKNVVALDVEVATNRIYWCDLSYRKIYSAHMDKASIPDEQVVLIDEQLHSPEGLAVDWVHKHIYWTDSGNKTISVATTDGRRRCTLFSRELSEPRAIAVDPLRGFMYWSDWGFQAKIEKAGLNGADRQTLVSDNIEWPNGITLDLLSQRLYWVDSKLHQLSSIDFNGGNRKMLIFSTDFLSHPFGVAVFEDKVFWTDLENEAIFSANRLNGLEIAILAENLNNPHDIVIFHELKQPKAADACDLSAQPNGGCEYLCLPAPQISSHSPKYTCACPDTMWLGPDMKRCYRAPQSTSTTTLASAMTRTVPATTRAPGTTIHDPTYQNHSTETPSQTAAAPHSVNVPRAPSTSPSTPSPATSNHSQHYGNEGSQMGSTVTAAVIGVIVPIVVIALLCMSGYLIWRNWKRKNTKSMNFDNPVYRKTTEEEEEDELHIGRTAQIGHVYPAAISNYDRPLWAEPCLGETRDLEDPAPALKELFVLPGEPRSQLHQLPKNPLSELPVVKCKRVALSLEDDGLP
 | dramatically weaker | ApoER2‐M8: ApoER2 mutein P253A, T254A, G268A, W269A, R270A, N311A, Q312A, E313A, encoded by Lrp8m (protein, UniProt Q924X6 29-996, looked up, variant P253A T254A G268A W269A R270A N311A Q312A E313A) Low-density lipoprotein …: DPLPGGQGPVKECEEDQFRCRNERCIPLVWRCDEDNDCSDNSDEDDCPKRTCADSDFTCDNGHCIPERWKCDGEEECPDGSDESKATCSSEECPAEKLSCGPTSHKCVPASWRCDGEKDCEGGADEAGCPTLCAPHEFQCSNRSCLASVFVCDGDDDCGDGSDERGCSDPACPPREFRCGGGGTCIPERWVCDRQFDCEDRSDEAAELCGRAGQGTTATPAACAAAAQFTCRSGECIHLAAACDGDRDCKDKSDEADCSPGPCRENEFQCGDGTCVLAIKRCAAARDCPDGSDEAGCLQESTCEGPRRFQCKSGECVDGGKVCDDQRDCRDWSDEPQKVCGLNECLHNNGGCSHICTDLKIGFECTCPAGFQLLDQKTCGDIDECQDPDACSQICVNYKGYFKCECHPGYEMDTLTKNCKAVAGKSPSLIFTNRHEVRRIDLVKRDYSRLIPMLKNVVALDVEVATNRIYWCDLSYRKIYSAHMDKASIPDEQVVLIDEQLHSPEGLAVDWVHKHIYWTDSGNKTISVATTDGRRRCTLFSRELSEPRAIAVDPLRGFMYWSDWGFQAKIEKAGLNGADRQTLVSDNIEWPNGITLDLLSQRLYWVDSKLHQLSSIDFNGGNRKMLIFSTDFLSHPFGVAVFEDKVFWTDLENEAIFSANRLNGLEIAILAENLNNPHDIVIFHELKQPKAADACDLSAQPNGGCEYLCLPAPQISSHSPKYTCACPDTMWLGPDMKRCYRAPQSTSTTTLASAMTRTVPATTRAPGTTIHDPTYQNHSTETPSQTAAAPHSVNVPRAPSTSPSTPSPATSNHSQHYGNEGSQMGSTVTAAVIGVIVPIVVIALLCMSGYLIWRNWKRKNTKSMNFDNPVYRKTTEEEEEDELHIGRTAQIGHVYPAAISNYDRPLWAEPCLGETRDLEDPAPALKELFVLPGEPRSQLHQLPKNPLSELPVVKCKRVALSLEDDGLP

Reference: article PMC12884772, “Macrophagic Sclerostin Loop2‐ApoER2 Interaction Required by Sclerostin for Cardiovascular Protective Action” (Advanced Science, 2025)
